The values that follow come from publication PMC7700883.

In general, Kd refers to a measure of binding affinity in units of concentration. A lower Kd goes with tighter binding.

Assay [1] deals with ubiquitin aminomethylcoumarin (UniProt P0CG48).
For assay [2], the target named is GST-tagged ChlaDUB1_(130–401) (C345A) (Chlamydia trachomatis L2) (UniProt B0B9A0). Description: BLI. (In general: In BLI a coated tip is dipped into the sample, and binding shifts an interference pattern.)
The target in assay [3] is GST-tagged ChlaDUB2_(58–339) (C282A) (Chlamydia trachomatis L2) (UniProt B0B999). Description: BLI.

In assay [1], “ChlaDUB2_(58–339) W92A (from UniProt B0B999 58-339) (domain or fragment)” returned an attenuation of Ub-AMC hydrolysis activity against wild type ChlaDUB2(58-339) of 50%. As to “Lys63-linked diubiquitin (from UniProt P0CG48 1-76) (complex)”, the Kd in assay [2] came to 117 µM; in assay [3], 88.9 µM.
